Laboratory results published in patent EP3505186B1, “NUCLEOPHILIC CATALYSTS FOR OXIME LINKAGE” (Takeda Pharmaceutical Company Limited, priority 2010, dated 2012).

Key:
[1] = Specific activity of the Prolia conjugate: biological activity by methods known in the art and total protein (Bradford)
Protocol: The free Prolia is removed by means of cation exchange chromatography (CEC). The reaction mixture is diluted with 20 ml Buffer A (50 mM Hepes, pH 6.5) and loaded onto a 20 ml HiPrep SPFF 16/10 column (GE Healthcare, Fairfield, CT) pre-equilibrated with Buffer A. Then the column is eluted with Buffer B (50 mM Hepes, 1 M NaCl, pH 6.5). Free Prolia is eluted by washing the column with 25 % Buffer B and the conjugate at 50 % Buffer B. The conductivity of the conjugate containing fractions is subsequently raised to -190 mS/cm with Buffer C (50 mM Hepes, 5 M NaCl, pH 6.9) and loaded onto a 20 ml HiPrep Butyl FF 16/10 column (GE Healthcare, Fairfield, CT) pre-equilibrated with Buffer D (50 mM Hepes, 3 M NaCl, pH 6.9). Free PSA-reagent is washed out within 5 CV Buffer D. Subsequently, the conjugate is eluted with 100 % Buffer E (50 mM Hepes, pH 6.9). The conjugate containing fractions are concentrated by UF/DF using a 10 kD membrane made of regenerated cellulose (88 cm2, cut-off 10 kD, Millipore). The final diafiltration step is performed against histidine buffer, pH 6.9 containing 150 mM NaCl. The preparation is analytically characterized by measuring total protein (Bradford) and biological activity according to methods known in the art. For the PSA-Prolia conjugate a specific activity of > 50 % in comparison to native Prolia is determined. The conjugate is additionally analytically characterized by Size Exclusion HPLC using a Agilent 1200 HPLC system equipped with a Shodex KW 803 column under conditions as previously described (Kolarich et al, Transfusion 2006;46:1959-77). It is shown that the preparation contains no free Prolia.
The free Prolia is removed by means of cation exchange chromatography (CEC). The reaction mixture is diluted with 20 ml Buffer A (50 mM Hepes, pH 6.5) and loaded onto a 20 ml HiPrep SPFF 16/10 column (GE Healthcare, Fairfield, CT) pre-equilibrated with Buffer A. Then the column is eluted with Buffer B (50 mM Hepes, 1 M NaCl, pH 6.5). Free Prolia is eluted by washing the column with 25 % Buffer B and the conjugate at 5 0% Buffer B. The conductivity of the conjugate containing fractions is subsequently raised to -190 mS/cm with Buffer C (50 mM Hepes, 5 M NaCl, pH 6.9) and loaded onto a 20 ml HiPrep Butyl FF 16/10 column (GE Healthcare, Fairfield, CT) pre-equilibrated with Buffer D (50 mM Hepes, 3 M NaCl, pH 6.9). Free PSA-reagent is washed out within 5 CV Buffer D. Subsequently the conjugate is eluted with 100% Buffer E (50 mM Hepes, pH 6.9). The conjugate containing fractions are concentrated by UF/DF using a 10 kD membrane made of regenerated cellulose (88 cm^2, cut-off 10 kD / Millipore). […] For the PSA-Prolia conjugate a specific activity of > 50 % in comparison to native Prolia is determined. […]

[2] = Harrison and Jollow 1987; cited from earlier work
rats = conditions: long-term dietary treatment of rats; Goodman et al. 1984; cited from earlier work
[3] = in vitro studies; Bombhard and Herbold 2005; cited from earlier work

PSA-Prolia conjugate: Prolia polysialylated with 20 kD aminooxy-PSA reagent, m-toluidine as catalyst
specific activity in comparison to native Prolia ([1]; Reference Example 30 Method 1, alternative (oxidation, then m-toluidine and 20 kD aminooxy-PSA, 5-fold)): > 50% | specific activity in comparison to native Prolia ([1]; Reference Example 30 Method 3, alternative (simultaneous, 20 kD aminooxy-PSA, 5 fold)): > 50%

Nc1ccccc1 [aniline]
methemoglobinemia [2]: induce methemoglobinemia | tumors in the spleen (rats): induce tumors in the spleen | chromosome mutations / genotoxic activity [3]: potential to induce chromosome mutations

PEG-Prolia conjugate: Prolia PEGylated with a linear 20 kD aminooxy PEGylation reagent, m-toluidine as catalyst
specific activity in comparison to native Prolia ([1]; Reference Example 44 Method 1, alternative (oxidation, then m-toluidine and 20 kD aminooxy-PEG, 5-fold)): > 50% | specific activity in comparison to native Prolia ([1]; Reference Example 44 Method 3, alternative (simultaneous, 20 kD aminooxy-PEG, 5-fold)): > 50%
